The values below come from publication PMC12329027 (Communications Chemistry, 2025).

This data set deals with the molecule itself. The data set can be described thus: cryo-EM structure.

B1: full-length human αA-crystallin carrying the pathological mutation R116C (natural protein)
chain: MDVTIQHPWFKRTLGPFYPSRLFDQFFGEGLFEYDLLPFLSSTISPYYRQSLFRTVLDSGISEVRSDRDKFVIFLDVKHFSPEDLTVKVQDDFVEIHGKHNERQDDHGYISREFHCRYRLPSNVDQSALSCSLSADGMLTFCGPKIQTGLDATHAERAIPVSREEKPTSAPSS
For B1, the binding result was “binds”.
